# Assays:
# [1] = target: T1, QsdR (TetR-family repressor) (Rhodococcus erythropolis R138) (UniProt A0A0C2W9F0); assay: competition; details: LightShift Chemiluminescent EMSA Kit (Thermo Scientific) as per manufacturer, 20 ul reaction; buffer, salt, pH and temperature not stated
# T1 sequence: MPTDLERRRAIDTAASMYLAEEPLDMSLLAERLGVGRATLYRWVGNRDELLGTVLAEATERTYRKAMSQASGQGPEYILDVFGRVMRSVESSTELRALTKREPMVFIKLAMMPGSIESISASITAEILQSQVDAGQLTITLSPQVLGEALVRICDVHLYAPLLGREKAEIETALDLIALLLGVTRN
# QsdR = target: T2, QsdR (Rhodococcus erythropolis, UniProt A0A0C2W9F0); assay: EMSA, release of QsdR from biotin-labelled qsdR-qsdA intergenic DNA; details: ligand/QsdR molecule ratio 0.1 to 100; 2 μg His-tagged QsdR, 0.4 ng DNA; effector that relieves DNA binding
# T2 construct: gene I3517_23075; full-length qsdR ORF in pET19, His-tagged (tag kept), expressed in E. coli BL21(DE3), Ni-NTA; 186 residues, asymmetric dimer
# T2 sequence (A0A0C2W9F0 1-186): T1 sequence
# [2] = target: T1, QsdR (TetR-family repressor) (Rhodococcus erythropolis R138); assay: EMSA; details: LightShift Chemiluminescent EMSA Kit (Thermo Scientific) as per manufacturer, 20 ul reaction; buffer, salt, pH and temperature not stated
Compound,binding [2],also measured
GGTAGGCATCGGGACATTCTCTCCGGTTGTCCGGTACTGCACAATTTCGGCGGTCGAACAGAGGTGGGCTTCGGGTGGCTCGAGCCTATTGACGAACCAAGCGACGTGAGACACACTAGCTCATTGTCTCATGTTAGTGATGGCGATCACAGTCAGGGGTTCGATCGATGAG (double strand) [unlabeled qsdR-qsdA intergenic competitor],–,binding [1]: binds
"N[C@H]1CCOC1=O [HSL, homoserine lactone]",–,"EMSA, release of QsdR from biotin-labelled qsdR-qsdA intergenic DNA (QsdR): Addition of increased amounts of HSL induced a proportional increase in free DNA"
CATTCCTCAAGTGCGCCATCGAAGAACCTGGTCTGACTCCCGGTGTCGAGCGTGTGATGCGAGCGGTCGGTCAGGCGCAGGTCGAAACCGGGGTACCGATCACGGTTCACACGAACCCGCACACGGAATCGGGCCTCGTTGCGCAGAAGGTTCTGGCCGAGGAAGGTGCAGATCTGA (double strand) [qsdA internal fragment (negative control)],no binding,–
GGTAGGCATCGGGACATTCTCTCCGGTTGTCCGGTACTGCACAATTTCGGCGGTCGAACAGAGGTGGGCTTCGGGTGGCTCGAGCCTATTGACGAACCAAGCGACGTGAGACACACTAGCTCATTGTCTCATGTTAGTGATGGCGATCACAGTCAGGGGTTCGATCGATGAG (double strand),binds,–

# Reference: article PMC6262395, “A Rhodococcal Transcriptional Regulatory Mechanism Detects the Common Lactone Ring of AHL Quorum-Sensing Signals and Triggers the Quorum-Quenching Response” (Frontiers in Microbiology, 2018)
